Test results: PMC4466140, “Evolution of the SH3 Domain Specificity Landscape in Yeasts” (PLoS ONE, 2015)

Columns and labels:
Test in all cases: peptide or protein array; SPOT: 15-mer peptides on cellulose (CAPE) membrane; GST-SH3 domains at 10 μg/ml overnight at 4°C in blocking buffer (TBS, 50 mM Tris/HCl pH 7.6, 150 mM NaCl, Blocking Buffer, 0.15 M sucrose); detected with anti-GST antibody and HRP conjugate
Conditions in all cases: both partners purified
[1] = biological target: T1, GST-tagged S. cerevisiae Rvs167 SH3 domain (S. cerevisiae, UniProt P39743 421-482)
T1 construct: Rvs167, S. cerevisiae, SH3 domain; also called ScRvs167; source: E. coli BL21(DE3), purified (glutathione Sepharose 4B); not shown: GST, N-terminal, kept

[2] = biological target: T2, GST-tagged C. albicans Rvs167 SH3 domain (C. albicans, UniProt Q59LF3 382-440)
T2 construct: Rvs167 of Candida albicans, SH3 domain; also called CaRvs167; source: E. coli BL21(DE3), purified (glutathione Sepharose 4B); not shown: GST, N-terminal, kept
T2 sequence: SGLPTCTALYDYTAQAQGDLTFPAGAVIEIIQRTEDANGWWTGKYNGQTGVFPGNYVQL

[3] = biological target: T3, GST-tagged S. pombe Rvs167 (Hob1) SH3 domain (S. pombe, UniProt O74352 407-466)
T3 construct: Rvs167 homolog of S. pombe, called Hob1, SH3 domain; also called SpRvs167; source: E. coli BL21(DE3), purified (glutathione Sepharose 4B); not shown: GST, N-terminal, kept
T3 sequence (looked up): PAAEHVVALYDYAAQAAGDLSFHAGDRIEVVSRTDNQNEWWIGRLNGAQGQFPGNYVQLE

Measured: binding result

T1 sequence (P39743 421-482): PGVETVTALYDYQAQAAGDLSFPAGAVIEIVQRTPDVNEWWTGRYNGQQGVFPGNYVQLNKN

B1: Type II peptide #66 (SPOT membrane) (peptide)
peptide: SSSSTPPTLPPRRIE
notes: 15-mer of the SH3-SPOT library mined from the S. cerevisiae proteome; In the SPOT library all cysteines were replaced by serines; source: synthetic peptide, SPOT synthesis on cellulose (CAPE) membrane
binds: [1] | [2] | [3]
